Results published in paper PMC9974095, “TP63 gain-of-function mutations cause premature ovarian insufficiency by inducing oocyte apoptosis” (The Journal of Clinical Investigation, 2023).
Where a chain is given by its changes, count along the chain named. Names and notes keep the numbering of the source. Values joined by “and” are separate entries in the source; they are usually repeats but may differ in a detail not shown here. Equal entries are not always repeated.

B1: TAp63α (human TP63), wild type (natural protein, UniProt Q9H3D4-1 1-680, looked up)
chain: MNFETSRCATLQYCPDPYIQRFVETPAHFSWKESYYRSTMSQSTQTNEFLSPEVFQHIWDFLEQPICSVQPIDLNFVDEPSEDGATNKIEISMDCIRMQDSDLSDPMWPQYTNLGLLNSMDQQIQNGSSSTSPYNTDHAQNSVTAPSPYAQPSSTFDALSPSPAIPSNTDYPGPHSFDVSFQQSSTAKSATWTYSTELKKLYCQIAKTCPIQIKVMTPPPQGAVIRAMPVYKKAEHVTEVVKRCPNHELSREFNEGQIAPPSHLIRVEGNSHAQYVEDPITGRQSVLVPYEPPQVGTEFTTVLYNFMCNSSCVGGMNRRPILIIVTLETRDGQVLGRRCFEARICACPGRDRKADEDSIRKQQVSDSTKNGDGTKRPFRQNTHGIQMTSIKKRRSPDDELLYLPVRGRETYEMLLKIKESLELMQYLPQHTIETYRQQQQQQHQHLLQKQTSIQSPSSYGNSSPPLNKMNSMNKLPSVSQLINPQQRNALTPTTIPDGMGANIPMMGTHMPMAGDMNGLSPTQALPPPLSMPSTSHCTPPPPYPTDCSIVSFLARLGCSSCLDYFTTQGLTTIYQIEHYSMDDLASLKIPEQFRHAIWKGILDHRQLHEFSSPSHLLRTPSSASTVSVGSSETRGERVIDAVRFTLRQTISFPPRDEWNDFNFDMDARRNKQQRIKEEGE
notes: human p63, isoform TAp63α; variants are numbered on NM_003722.5; also called WT TAp63α; source: SAOS-2, transfected (pcDNA3.1-TP63), MG132-treated, in lysate
B2: TAp63α p.R655Q (natural protein, human, UniProt Q9H3D4-1 1-680, looked up)
chain: B1 chain with R655Q
notes: Variant found in a patient with POI; source: SAOS-2, transfected, MG132-treated, in lysate
B3: mouse p63ΔTID (domain or fragment, UniProt O88898-1 1-609, looked up)
chain: MNFETSRCATLQYCPDPYIQRFIETPAHFSWKESYYRSAMSQSTQTSEFLSPEVFQHIWDFLEQPICSVQPIELNFVDEPSENGATNKIEISMDCIRMQDSDLSDPMWPQYTNLGLLNSMDQQIQNGSSSTSPYNTDHAQNSVTAPSPYAQPSSTFDALSPSPAIPSNTDYPGPHSFDVSFQQSSTAKSATWTYSTELKKLYCQIAKTCPIQIKVMTPPPQGAVIRAMPVYKKAEHVTEVVKRCPNHELSREFNEGQIAPPSHLIRVEGNSHAQYVEDPITGRQSVLVPYEPPQVGTEFTTVLYNFMCNSSCVGGMNRRPILIIVTLETRDGQVLGRRCFEARICACPGRDRKADEDSIRKQQVSDSAKNGDGTKRPFRQNTHGIQMTSIKKRRSPDDELLYLPVRGRETYEMLLKIKESLELMQYLPQHTIETYRQQQQQQHQHLLQKQTSMQSQSSYGNSSPPLNKMNSMNKLPSVSQLINPQQRNALTPTTMPEGMGANIPMMGTHMPMAGDMNGLSPTQALPPPLSMPSTSHCTPPPPYPTDCSIVSFLARLGCSSCLDYFTTQGLTTIYQIEHYSMDDLASLKIPEQFRHAIWKGILDHRQLHD
notes: mouse p63 (TAp63α) without the TID; the mouse allele of the same name carries c.1828_1829insGA (p.F610*, NM_001127259.1), a stop codon prior to the TID; also called mutant p63ΔTID
B4: TAp63α p.S285N (natural protein, human, UniProt Q9H3D4-1 1-680, looked up)
chain: B1 chain with S285N
notes: made from pcDNA3.1-TP63 by site-directed mutagenesis; Variant found in a patient with POI; source: SAOS-2, transfected, MG132-treated, in lysate
B5: TAp63α p.T538A (natural protein, human, UniProt Q9H3D4-1 1-680, looked up)
chain: B1 chain with T538A
notes: human TAp63α with the patient variant p.T538A, numbered on NM_003722.5; made from pcDNA3.1-TP63 by site-directed mutagenesis; Variant found in a patient with POI; source: SAOS-2, transfected, MG132-treated, in lysate
B6: TAp63α p.T567I (natural protein, human, UniProt Q9H3D4-1 1-680, looked up)
chain: B1 chain with T567I
notes: human TAp63α with the patient variant p.T567I (SAM domain), numbered on NM_003722.5; made from pcDNA3.1-TP63 by site-directed mutagenesis; Variant found in a patient with POI; source: SAOS-2, transfected, MG132-treated, in lysate
B7: TAp63α p.R594* (domain or fragment, human, UniProt Q9H3D4-1 1-593, looked up)
chain: MNFETSRCATLQYCPDPYIQRFVETPAHFSWKESYYRSTMSQSTQTNEFLSPEVFQHIWDFLEQPICSVQPIDLNFVDEPSEDGATNKIEISMDCIRMQDSDLSDPMWPQYTNLGLLNSMDQQIQNGSSSTSPYNTDHAQNSVTAPSPYAQPSSTFDALSPSPAIPSNTDYPGPHSFDVSFQQSSTAKSATWTYSTELKKLYCQIAKTCPIQIKVMTPPPQGAVIRAMPVYKKAEHVTEVVKRCPNHELSREFNEGQIAPPSHLIRVEGNSHAQYVEDPITGRQSVLVPYEPPQVGTEFTTVLYNFMCNSSCVGGMNRRPILIIVTLETRDGQVLGRRCFEARICACPGRDRKADEDSIRKQQVSDSTKNGDGTKRPFRQNTHGIQMTSIKKRRSPDDELLYLPVRGRETYEMLLKIKESLELMQYLPQHTIETYRQQQQQQHQHLLQKQTSIQSPSSYGNSSPPLNKMNSMNKLPSVSQLINPQQRNALTPTTIPDGMGANIPMMGTHMPMAGDMNGLSPTQALPPPLSMPSTSHCTPPPPYPTDCSIVSFLARLGCSSCLDYFTTQGLTTIYQIEHYSMDDLASLKIPEQF
notes: human TAp63α with the nonsense variant p.R594* (stop at codon 594, in the SAM domain; truncates the protein prior to the TID), numbered on NM_003722.5; Nonsense variant found in a patient with POI; lacks the TID; source: SAOS-2, transfected, MG132-treated, in lysate
B8: TAp63α p.R643Q (natural protein, human, UniProt Q9H3D4-1 1-680, looked up)
chain: B1 chain with R643Q
notes: as for B2
B9: TAp63α p.L646P (natural protein, human, UniProt Q9H3D4-1 1-680, looked up)
chain: B1 chain with L646P
notes: as for B2
B10: TAp63α p.R647C (natural protein, human, UniProt Q9H3D4-1 1-680, looked up)
chain: B1 chain with R647C
notes: Variant found in three patients with POI; source: SAOS-2, transfected, MG132-treated, in lysate

The molecules below were run against TAp63α p.Q568fs*3 (human) (UniProt Q9H3D4) (assay: native gel or EMSA; BN-PAGE (NativePAGE 3%-12% Bis-Tris) of lysates of transfected SAOS-2 cells treated with 10 uM MG132 for 12 h; blot with anti-p63). Conditions: not given.

Molecule “TAp63α p.Q568fs*3 (from UniProt Q9H3D4-1 1-567) (domain or fragment)” has a stoichiometry N of 4.

What follows are molecules tested against TAp63αΔTID (assay: co-IP (anti-p63 IP, GFP Western blot, quantified)). Conditions: HEK293 cells cotransfected with TAp63αΔTID and GFP-TID plasmids; 3 independent experiments; parent: est. 6.4; read off a plot.

First: GFP-TID, wild type R655Q
Second: GFP-TID, wild type R643Q
The response of the first is higher: 2.8 % Input for the first, 2.4 % Input for the second.

First: GFP-TID, wild type L646P
Second: GFP-TID, wild type R647C
The response of the first is lower: 0.58 % Input for the first, 3.5 % Input for the second.

Biological target: the molecule itself
Assay: native gel or EMSA; BN-PAGE (NativePAGE 3%-12% Bis-Tris) of lysates of transfected SAOS-2 cells treated with 10 uM MG132 for 12 h; blot with anti-p63
Conditions: not given

Going from B1 to B3, the “stoichiometry N” value rises from 2 to 4.

B4 and B5 are the same in “stoichiometry N” value: 2 for the first, 2 for the second.

First: B6
Second: B7
The “stoichiometry N” value of the first is lower: 2 for the first, 4 for the second.

B8 and B9 are the same in “stoichiometry N” value: 4 for the first, 4 for the second.

For B10, the “stoichiometry N” value was 4.

B2 was tested, and the “stoichiometry N” value was 4 and 2.
